Here are results for four molecules from US20250051464A1 (IMMUNOME, published 2025).

Broadly, the Kd is the constant that tells how readily two partners part at equilibrium. Higher therefore signals a looser complex. For orientation: koff means the first-order rate constant of dissociation. A lower koff goes with slow dissociation. A word on the kon: it is the second-order rate constant of association.

Experiment [1] addresses T1, Human EphA2 (ephrin receptor A2) (human, UniProt P29317 24-976).
T1 construct: Endogenous protein in frozen human tumor tissue and tumor adjacent tissue, not a recombinant construct
Briefly: IHC/IF score on frozen human tumor tissue, ANC.

Experiment [2] addresses T1, Human EphA2 (ephrin receptor A2). Briefly: IHC/IF score on frozen human tumor tissue, CRC.
Experiment [3] has the same target. The experiment in a line: IHC/IF score on frozen human tumor tissue, ESC.
Experiment [4] shares this target. The experiment in a line: IHC/IF score on frozen human tumor tissue, GAC.
For experiment [5] the target is unchanged. The experiment in a line: IHC/IF score on frozen human tumor tissue, HNC.
For experiment [6] the target is unchanged. The experiment in a line: IHC/IF score on frozen human tumor tissue, OVA.
The target is the same in experiment [7]. The experiment in a line: IHC/IF score on frozen human tumor tissue, STS.
The target is the same in experiment [8]. Briefly: IHC/IF score on frozen human tumor tissue, URO.
Experiment [9] shares this target. The experiment in a line: IHC/IF score on frozen human tumor tissue, MELA.
Experiment [10] has the same target. Briefly: IHC/IF score on frozen human tumor tissue, PANC.
Experiment [11] has the same target. Briefly: IHC/IF score on frozen human tumor tissue, PROC.
The target is the same in experiment [12]. The experiment in a line: IHC/IF score on frozen human tumor tissue, TNBC.
Experiment [13] has the same target. Briefly: IHC/IF score on frozen human tumor tissue, ER+ BRC.
Experiment [14] has the same target. Briefly: IHC/IF score on frozen human tumor tissue, NSCLC-SQ.
Experiment [15] has the same target. The experiment in a line: IHC/IF score on frozen human tumor tissue, Her2+ BRC.
Experiment [16] shares this target. The experiment in a line: IHC/IF score on frozen human tumor tissue, NSCLC-Adeno.
Experiment [17] shares this target. Briefly: IHC/IF score on frozen human tumor tissue, RCC-papillary.
For experiment [18] the target is unchanged. Briefly: IHC/IF score on frozen human tumor tissue, RCC-clear cell.
Experiment [19] shares this target. Briefly: IHC/IF score on frozen human tumor tissue, UCEC-papillary.
Experiment [20] shares this target. Briefly: IHC/IF score on frozen human tumor tissue, UCEC-clear cell.
Experiment [21] has the same target. Briefly: IHC/IF score on frozen human tumor tissue, UCEC-endometriod.
The target in another experiment is T2, hEphA2-FN12-(327-534)-Fc (human, UniProt P29317 327-534).
T2 construct: Captured by anti-human Fc on a CM5 chip; also called FN1-FN2 domains of EphA2 fused to human Fc
T2 sequence (P29317 327-534): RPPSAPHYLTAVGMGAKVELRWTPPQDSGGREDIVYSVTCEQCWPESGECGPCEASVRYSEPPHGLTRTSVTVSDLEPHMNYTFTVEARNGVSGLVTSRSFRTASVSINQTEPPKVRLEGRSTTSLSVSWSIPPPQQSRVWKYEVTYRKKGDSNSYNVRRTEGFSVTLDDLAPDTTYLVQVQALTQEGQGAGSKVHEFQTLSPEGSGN
The experiment in a line: SPR Biacore, 25 C, EphA2-Fc captured by anti-human Fc, Fab as analyte, 1:1 Langmuir. Here is the method:
(§1) The hEphA2-Fc fusions were captured with an anti-human Fc immobilized to a CM5 chip. Biacore® assays were conducted at 25° C. using HBS-EP+ buffer (0.01 M HEPES pH 7.4, 0.15 M NaCl, 3 mM EDTA, 0.005% v/v Surfactant P20). Data was double-reference subtracted and data was analyzed using 1:1 Langmuir binding model and steady-state model in Biacore Evaluation software.
(§2) Binding to hEphA2-ECD-Fc tested using 100, 300, and 900 nM analyte. Binding to all other ligands tested using 33.3, 100, and 300 nM analyte.

The next experiment addresses T3, hEphA2-FN2-(437-534)-Fc (human, UniProt P29317 437-534).
T3 construct: Captured by anti-human Fc on a CM5 chip; also called FN2 domain of EphA2 fused to human Fc
Described as above. Here is the method:
as §1, §2

The target of another experiment is T4, hEphA2-clv385-534-Fc (human, UniProt P29317 385-534).
T4 construct: Recombinant fragment representing a cleavage form
T4 sequence (P29317 385-534): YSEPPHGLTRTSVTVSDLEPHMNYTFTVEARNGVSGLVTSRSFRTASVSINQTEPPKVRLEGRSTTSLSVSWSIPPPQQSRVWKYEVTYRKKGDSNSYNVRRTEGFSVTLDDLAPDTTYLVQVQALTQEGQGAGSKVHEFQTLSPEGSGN
The description is as above. The method, then: as §1, §2

The next experiment deals with T5, hEphA2-clv395-534-Fc (human, UniProt P29317 395-534).
T5 construct: Recombinant fragment representing a cleavage form
T5 sequence (P29317 395-534): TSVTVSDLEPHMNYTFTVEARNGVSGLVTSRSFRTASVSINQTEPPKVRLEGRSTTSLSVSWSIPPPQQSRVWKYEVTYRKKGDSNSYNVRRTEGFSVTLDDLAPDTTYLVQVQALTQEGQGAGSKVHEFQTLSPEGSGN
The experiment is described as above. The method, then:
as §1, §2

A further experiment concerns the target T6, hEphA2-clv432-534-Fc (human, UniProt P29317 432-534).
T6 construct: Recombinant fragment representing a cleavage form
The experiment is described as above. The method, then:
as §1, §2

Another experiment has as its target T7, hEphA2-clv435-534-Fc (human, UniProt P29317 435-534).
T7 construct: Recombinant fragment representing a cleavage form
Described as above. The method, then:
as §1, §2

Experiment [22] deals with T8, C-terminally His-tagged hEphA2-FN2 (Thr437-Asn534+His tag) (human, UniProt P29317 437-534).
T8 construct: SPR analyte; also called FN2 domain of hEphA2
T8 sequence (P29317 437-534 limits assumed): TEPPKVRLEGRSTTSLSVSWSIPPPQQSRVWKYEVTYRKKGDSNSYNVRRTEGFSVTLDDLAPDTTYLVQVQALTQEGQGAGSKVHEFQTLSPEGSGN
The experiment in a line: SPR Biacore T200, 25 C, mIgG2a as ligand, FN2-His as analyte, 1:1 Langmuir. The method, then:
Binding of EphA2 antibodies to the FN2 domain of hEphA2 was measured using the Biacore® T200 SPR system. Biacore® assays were conducted at 25° C. using HBS-EP+ buffer (0.01 M HEPES pH 7.4, 0.15 M NaCl, 3 mM EDTA, 0.005% v/v Surfactant P20) using the FN2 domain as the analyte with the antibodies in mIgG2a format as the immobilized ligand. Data was analyzed using 1:1 Langmuir binding model and steady-state model in Biacore Evaluation software.
C-terminally His-tagged human EphA2 FN2 domain (Thr437-Asn534+His tag) was used as the analyte. The analyte was associated for 120 seconds and dissociated for 100 seconds or 300 seconds at 30 uL/min.
Background: Surface plasmon resonance follows binding to a sensor surface in real time, without labels.

Experiment [23] concerns the target T8, C-terminally His-tagged hEphA2-FN2 …. The experiment in a line: SPR Biacore T200, 25 C, mIgG2a captured by anti-mouse Fc, FN2-His as analyte, steady-state fit, monovalent. The method, then: Binding of antibodies to the FN2 domain of hEphA2 was measured using the Biacore® T200 SPR system at 25° C. using HBS-EP+ buffer (0.01 M HEPES pH 7.4, 0.15 M NaCl, 3 mM EDTA, 0.005% v/v Surfactant P20). Antibodies in mIgG2a format were captured at levels between 475-715 RU via an anti-mouse Fc antibody immobilized to a CM5 chip. Binding was assessed using a titration of C-terminally His-tagged hEphA2-FN2 (Thr437-Asn534+His tag) associated for 30 s or 75 s at 30 uL/min. Data was double-reference subtracted using both a surface without captured antibody and from injections of HBS-EP+ buffer. The equilibrium response was measured at 4 seconds before the end of association with a window of 5 seconds and fit using the Biacore T200 Evaluation Software 3.1 with the Steady State Affinity Model.

T3 sequence (P29317 437-534): as the sequence (P29317 437-534 limits assumed) above
T7 sequence (P29317 435-534): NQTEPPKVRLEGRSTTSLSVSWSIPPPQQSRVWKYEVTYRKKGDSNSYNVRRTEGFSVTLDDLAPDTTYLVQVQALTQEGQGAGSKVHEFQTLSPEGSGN
T1 sequence (P29317 24-976 limits assumed): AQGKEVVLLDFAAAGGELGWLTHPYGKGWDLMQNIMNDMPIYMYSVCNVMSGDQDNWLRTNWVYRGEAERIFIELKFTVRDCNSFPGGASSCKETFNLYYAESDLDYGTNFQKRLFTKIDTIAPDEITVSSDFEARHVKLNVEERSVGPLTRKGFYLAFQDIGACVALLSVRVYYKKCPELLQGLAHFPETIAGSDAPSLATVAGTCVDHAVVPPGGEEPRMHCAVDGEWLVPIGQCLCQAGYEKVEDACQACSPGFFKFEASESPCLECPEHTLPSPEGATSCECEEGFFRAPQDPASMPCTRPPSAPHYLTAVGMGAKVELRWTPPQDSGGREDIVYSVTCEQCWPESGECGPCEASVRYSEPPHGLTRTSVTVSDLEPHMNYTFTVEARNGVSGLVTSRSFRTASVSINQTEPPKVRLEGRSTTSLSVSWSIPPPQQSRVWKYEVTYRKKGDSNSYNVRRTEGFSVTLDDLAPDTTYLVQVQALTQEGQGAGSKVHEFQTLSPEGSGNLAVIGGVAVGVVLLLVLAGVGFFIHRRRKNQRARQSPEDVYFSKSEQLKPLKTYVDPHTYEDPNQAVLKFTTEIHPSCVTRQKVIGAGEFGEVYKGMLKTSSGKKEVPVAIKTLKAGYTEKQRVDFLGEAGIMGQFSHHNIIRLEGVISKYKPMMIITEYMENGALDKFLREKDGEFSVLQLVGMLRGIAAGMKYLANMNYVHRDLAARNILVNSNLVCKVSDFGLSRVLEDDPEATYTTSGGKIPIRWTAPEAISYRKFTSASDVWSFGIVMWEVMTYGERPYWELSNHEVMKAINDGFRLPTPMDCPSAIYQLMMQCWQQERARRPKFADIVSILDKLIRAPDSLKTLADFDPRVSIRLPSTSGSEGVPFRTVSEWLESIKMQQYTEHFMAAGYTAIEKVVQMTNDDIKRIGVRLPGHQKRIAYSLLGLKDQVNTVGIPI
T6 sequence (P29317 432-534): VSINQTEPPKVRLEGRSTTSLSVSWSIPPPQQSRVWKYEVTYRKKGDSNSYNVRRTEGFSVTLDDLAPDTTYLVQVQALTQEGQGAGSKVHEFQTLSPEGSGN

B1: AB-009815 (antibody, mouse IgG2a, V domains shown)
VH: QVQLQQWGAGLLKPSETLSLTCAVYGGSFSDYYWSWIRQPPGKGLEWIGEVNHRGSINYNNYNPSLKSRVTISVDTSKNQFSLKLTSVTAADTAVYYCAKPLRPHCTNGVCYSGDAFDIWGQGTMVTVAS
VL: SYVLTQPPSVSVAPGQTARITCGGNNIGSKNVHWYQQKPGQAPVLVVYDDSDRPSGIPEQFSGSNSGNTATLTISRVEAGDEADYYCQVWDSSSDHLVFGGGTKLTVL
With B1, the IHC score in [1] is 2; in [2], 1; in experiment [3] it was 2; in experiment [4] it was 2; in experiment [5], 2; in experiment [6] it was 2. The IHC score amounted to 2 in experiment [7]; 1 in experiment [8]; 2 in experiment [9]; 1 in experiment [10]; 1 in experiment [11]; 1 in experiment [12]. The IHC score was found to be 1 in experiment [13]; 1 in [14]; 2 in experiment [15]; 2 in experiment [16]; 1 in experiment [17]; 1 in experiment [18]. In addition, the IHC score in experiment [19] is 2; in experiment [20], 2; in experiment [21], 1.

B2: AB-010699 human Fab fragment (Fab, V domains shown)
VH: QVQLQQWGAGLLKPSETLSLTCAVYGGSFSGYYWSWIRQPPGKGLEWIGEINHRGSINYNNYNPSLKSRVTISVDTSKNQFSLKLSSVTAADTAVYYCAKPLRPHCINGVCYSGDAFDIWGQGTMVTVAS
VL: SYVLTQPPSVSVAPGQTARITCGGNNIGYKNVHWYQQKPGQAPVLVVYDDSDRPSGIPERFSGSNSGNTATLTISRVEAGDEADYYCQVWDHSSDHVVFGGGTKLTVL
notes: Human Fab fragment
Consider B2, for which the dissociation constant (Kd) in the experiment with hEphA2-FN12-(327-534)-Fc was found to be 8.6 nM; with hEphA2-FN2-(437-534)-Fc, 8.6 nM; in the experiment with hEphA2-clv385-534-Fc, 12 nM; with hEphA2-clv395-534-Fc it was 12 nM; with hEphA2-clv432-534-Fc, 9.6 nM; with hEphA2-clv435-534-Fc it was 9.3 nM. Besides, the koff stood at 0.043 s⁻¹ in the experiment with hEphA2-FN12-(327-534)-Fc; 0.085 s⁻¹ with hEphA2-FN2-(437-534)-Fc; 0.072 s⁻¹ with hEphA2-clv385-534-Fc; 0.07 s⁻¹ with hEphA2-clv395-534-Fc; 0.075 s⁻¹ with hEphA2-clv432-534-Fc; 0.078 s⁻¹ with hEphA2-clv435-534-Fc. Besides, the kon with hEphA2-FN12-(327-534)-Fc was 5e+06 M⁻¹ s⁻¹; with hEphA2-FN2-(437-534)-Fc, 1e+07 M⁻¹ s⁻¹; in the experiment with hEphA2-clv385-534-Fc, 6.05e+06 M⁻¹ s⁻¹; with hEphA2-clv395-534-Fc, 5.72e+06 M⁻¹ s⁻¹; with hEphA2-clv432-534-Fc it was 7.78e+06 M⁻¹ s⁻¹; in the experiment with hEphA2-clv435-534-Fc, 8.42e+06 M⁻¹ s⁻¹.

B3: AB-009816 (antibody, mouse IgG2a, V domains shown)
VH: QVQLQQWGAGLLKPSETLSLTCAVYGGSFSDYYWSWIRQPPGKGLEWIGEVNHRGSINYNNYNPSLKSRVTISVDASKNQFSLKLTSVTAADTAVYYCAKPLRPHCTNGVCYSGDAFDIWGQGTMVTVAS
VL: SYVLTQPPSVSVAPGQTARITCGGNNIGSKNVHWYQQKPGQAPVLVVYDDSDRPSGIPEQFSGSNSGNTATLTISRVEAGDEADYYCQVWDSSSDHLVFGGGTKLTVL
As for B3, the IHC score was 2 in experiment [1]; 1 in experiment [2]; 2 in [3]; 2 in experiment [4]; 2 in experiment [5]; 2 in experiment [6]. Further, the IHC score in [7] was 2; in experiment [8], 1; in [9], 2; in experiment [10], 1; in experiment [11] it was 1; in experiment [12] it was 1. The IHC score was 1 in experiment [13]; 1 in [14]; 2 in experiment [15]; 2 in experiment [16]; 1 in experiment [17]; 1 in experiment [18]. Also, the IHC score in experiment [19] amounted to 2; in experiment [20], 2; in [21] it was 1.

B4: AB-010699 (mIgG2a format) (antibody, V domains shown)
VH: QVQLQQWGAGLLKPSETLSLTCAVYGGSFSGYYWSWIRQPPGKGLEWIGEINHRGSINYNNYNPSLKSRVTISVDTSKNQFSLKLSSVTAADTAVYYCAKPLRPHCINGVCYSGDAFDIWGQGTMVTVAS
VL: SYVLTQPPSVSVAPGQTARITCGGNNIGYKNVHWYQQKPGQAPVLVVYDDSDRPSGIPERFSGSNSGNTATLTISRVEAGDEADYYCQVWDHSSDHVVFGGGTKLTVL
notes: Tested with mouse IgG2a constant regions (mIgG2a format)
With B4, in experiment [22], binding was characterised by a dissociation constant (Kd) of 19 nM, the off-rate constant (koff) worked out at 0.075 s⁻¹ and the on-rate (kon) came out at 3.9e+06 M⁻¹ s⁻¹. The molecule also displayed a Kd in experiment [23] of 18.9 nM.
